Data reported in patent US20130210034A1, “COMPLEX PHOSPHOPROTEIN ACTIVATION PROFILES” (BECKMAN COULTER, INC., priority 2005, published 2013).
“And” between values parts separate entries of the source, which are not always exact repeats. Equal values may be shown once.

Assays:
Test in all cases: Cytokine-stimulated phosphorylation in immunophenotypically defined cell populations from healthy donor BM (flow cytometry);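 as to pERK S/N ratio: Phosphoprotein MFI normalized to lymphocyte MFI as internal negative control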;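 as to pS6 S/N ratio: Phosphoprotein MFI normalized to lymphocyte MFI as internal negative control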;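 as to pSTAT3 S/N ratio: Phosphoprotein MFI normalized to lymphocyte MFI as internal negative control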;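 as to pSTAT5 S/N ratio: Phosphoprotein MFI normalized to lymphocyte MFI as internal negative control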
Type in all cases: cell-based, human
pSTAT5 = settings: healthy donor BM, mean ± SD
Procedure: (§1) Bone marrow (BM) samples were collected in 7.5 mL Iscove's modified Dulbecco's medium (IMDM) supplemented with 100U penicillin, 0.01 mg/mL streptomycin, and 70 μg/mL heparin sodium salt from 10 patients undergoing hip replacement surgery, who were otherwise healthy. These patients were from a pool of surgery patients, age 49 to 77, and represented […] patients. […] These BM samples were rinsed twice with IMDM to release cells, filtered using a 100 μm Nylon cell strainer to remove marrow particles, and centrifuged for at RT fro 7 minutes at 200 g. The cell pellet was washed twice with sterile IMDM to remove traces of fat and re-suspended in IMDM to a concentration of 3×10^7 cells/mL.
(§2) To assess the signal transduction response after growth factor simulation, a series comprising two sets of tubes including about 3×10^6 cells/100 μL were incubated at 37° C. for 30 minutes. After this pre-incubation period, tubes with then processes with either a stimulant or inhibitor. […] To examine the effects of protein phosphorylation inhibition, tubes were incubated with an inhibitor cocktail comprising 100 μM/100 μL UO126, 1 μM/100 μL LY294002, and 1 μM/100 μL rapamycin. One unstimulated tube receiving no stimulant or inhibitor was processed to assess basal levels of phospho-protein expression. After stimulation the cells were immediately fixed in 10% formaldehyde solution at 37° C. Pre-labeling with CD13, CD16 and CD64 antibodies was carried out 20 minutes prior to formaldehyde fixation. After fixation, one set of tubes was permeabilized without methanol for pAKT, pERK and pS6 staining and the other for 80% methanol permeabilized for pSTAT3 and pSTAT5 staining. After permeablization, the cells were washed in PBS with 2% BSA and blocked by re-suspended in 75 μL of PBS comprising 25% heat inactivated normal mouse serum, 25% normal rabbit serum. To stain cells with fluorescent conjugated monoclonal antibodies, samples were incubated on ice for 45 minutes in 100 μL of an antibody staining solution including either: 1) CD15-Pacific Orange, CD34-Phycoerythrin-Texas Red, CD117-Phycoerythrin-Cyanin 5.5, CD45-Allophycocyanin-Alexa Fluor 750 (or CD45-Pacific Orange, in which case CD15-Pacific Orange was omitted), pS6-Pacific Blue, pERK-Alexa Fluor 488 and pAKT-Alexa Fluor 647 or 2) CD15-Pacific Orange, CD34-Phycoerythrin-Texas Red, CD117-Phycoerythrin-Cyanin 5.5, CD45-Allophycocyanin-Alexa Fluor 750 or CD45-Pacific Blue, pSTAT3-Alexa Fluor 488 and pSTAT5-Phycoerythrin. The stained cells were washed twice with ice cold PBS containing 2% BSA and centrifuged at 800 g for 6 minutes at 4° C. The supernatant was discarded and cells re-suspended in 250 μL of chilled wash buffer for data acquisition. Stained cells were examined using either GALIOS flow cytometer (Beckman Coulter) or CYAN ADP (Beckman Coulter) equipped with 488 nm, 405 nm and 635 nm lasers to detect the degree of fluorescence. Data were analyzed using FCS Express (De Novo Software, CA) analysis software.
(§3) Specific phosphoprotein expression of pERK, pS6, pAKT, pSTAT5, and pSTAT3 was examined in seven discrete phenotypically defined populations based on 7-color immunophenotyping (FIG. 1). The percent of responding (phosphorprotein positive) cells for each of these populations was determined from individual single parameter histograms based on a fixed integration region set on the inhibitor treated control at about 3% positives.

pS6 = settings: healthy donor BM, mean ± SD
Procedure: as §1, §2, §3

pSTAT3 = settings: healthy donor BM, mean ± SD
Procedure: as §1, §2, §3

pERK = settings: for pERK Percent (%) Responding Cells, Mean / pERK S/N ratio: healthy donor BM, mean ± SD
Procedure: as §1, §2, §3

pAKT = settings: for pAKT Percent (%) Responding Cells, Mean / pAKT S/N ratio: healthy donor BM, mean ± SD
Procedure: as §1, §2, §3

B1: FMS-Like Tyrosine Kinase 3 (FLT-3) ligand (protein, UniProt P49771 27-235, looked up)
Fms-related tyrosine kinase 3 …: TQDCSFQHSPISSDFAVKIRELSDYLLQDYPVTVASNLQDEELCGGLWRLVLAQRWMERLKTVAGSKMQGLLERVNTEIHFVTKCAFQPPPSCLRFVQTNISRLLQETSEQLVALKPWITRQNFSRCLELQCQPDSSTLPPPWSPRPLEATAPTAPQPPLLLLLLLPVGLLLLAAAWCLHWQRTRRRTPRPGEQVPPVPSPQDLLLVEH
- pSTAT5 Percent (%) Responding Cells, Mean (pSTAT5; CD34^+ (CD34^+/CD117^+ cells)): 16.1 ± 6.1%
- pSTAT5 S/N ratio (pSTAT5; CD34^+ (CD34^+/CD117^+ cells)): 1.9 ± 1.4
- pSTAT5 Percent (%) Responding Cells, Mean (pSTAT5; CD117^+ (CD34^−/CD117^+ cells)): 5.7 ± 5.8%
- pSTAT5 S/N ratio (pSTAT5; CD117^+ (CD34^−/CD117^+ cells)): 2.1 ± 0.6
- pSTAT5 Percent (%) Responding Cells, Mean (pSTAT5; G1, immature myeloid cells): 2.7 ± 2.5%
- pSTAT5 S/N ratio (pSTAT5; G1, immature myeloid cells): 2.6 ± 0.5
- pSTAT5 Percent (%) Responding Cells, Mean (pSTAT5; G2, intermediate myeloid cells): 2.0 ± 1.6%
- pSTAT5 S/N ratio (pSTAT5; G2, intermediate myeloid cells): 2.7 ± 0.5
- pSTAT5 Percent (%) Responding Cells, Mean (pSTAT5; G3, mature myeloid cells): 3.1 ± 1.0%
- pSTAT5 S/N ratio (pSTAT5; G3, mature myeloid cells): 3.2 ± 0.7
- pSTAT5 Percent (%) Responding Cells, Mean (pSTAT5; Mono, monocytes): 3.1 ± 1.9%
- pSTAT5 S/N ratio (pSTAT5; Mono, monocytes): 3.9 ± 4.9
- pS6 Percent (%) Responding Cells, Mean (pS6; CD34^+ (CD34^+/CD117^+ cells)): 68.8% and 68.8 ± 21.1%
- pS6 S/N ratio (pS6; CD34^+ (CD34^+/CD117^+ cells)): 31.1 ± 26.0
- pS6 Percent (%) Responding Cells, Mean (pS6; CD117^+ (CD34^−/CD117^+ cells)): 36.1 ± 16.4%
- pS6 S/N ratio (pS6; CD117^+ (CD34^−/CD117^+ cells)): 44.4 ± 44.4
- pS6 Percent (%) Responding Cells, Mean (pS6; G1, immature myeloid cells): 2.1 ± 1.5%
- pS6 S/N ratio (pS6; G1, immature myeloid cells): 3.3 ± 1.9
- pS6 Percent (%) Responding Cells, Mean (pS6; G2, intermediate myeloid cells): 2.5 ± 1.9%
- pS6 S/N ratio (pS6; G2, intermediate myeloid cells): 2.9 ± 1.8
- pS6 Percent (%) Responding Cells, Mean (pS6; G3, mature myeloid cells): 3.9 ± 2.7%
- pS6 S/N ratio (pS6; G3, mature myeloid cells): 3.6 ± 2.3
- pS6 S/N ratio (pS6; Mono, monocytes): 33.4 and 33.4 ± 30.5
- pSTAT3 Percent (%) Responding Cells, Mean (pSTAT3; CD34^+ (CD34^+/CD117^+ cells)): 13.5 ± 9.4%
- pSTAT3 S/N ratio (pSTAT3; CD34^+ (CD34^+/CD117^+ cells)): 3.5 ± 3.3
- pSTAT3 Percent (%) Responding Cells, Mean (pSTAT3; CD117^+ (CD34^−/CD117^+ cells)): 3.5 ± 2.2%
- pSTAT3 S/N ratio (pSTAT3; CD117^+ (CD34^−/CD117^+ cells)): 2.6 ± 0.6
- pSTAT3 Percent (%) Responding Cells, Mean (pSTAT3; G1, immature myeloid cells): 2.7 ± 3.3%
- pSTAT3 S/N ratio (pSTAT3; G1, immature myeloid cells): 3.4 ± 0.4
- pSTAT3 Percent (%) Responding Cells, Mean (pSTAT3; G2, intermediate myeloid cells): 1.8 ± 1.4%
- pSTAT3 S/N ratio (pSTAT3; G2, intermediate myeloid cells): 3.3 ± 0.6
- pSTAT3 Percent (%) Responding Cells, Mean (pSTAT3; G3, mature myeloid cells): 5.3 ± 5.6%
- pSTAT3 S/N ratio (pSTAT3; G3, mature myeloid cells): 3.7 ± 0.5
- pSTAT3 Percent (%) Responding Cells, Mean (pSTAT3; Mono, monocytes): 4.8 ± 3.9%
- pSTAT3 S/N ratio (pSTAT3; Mono, monocytes): 2.6 ± 0.4
- pERK Percent (%) Responding Cells, Mean (pERK; CD34^+ (CD34^+/CD117^+ cells)): 76.9% and 76.9 ± 11.0%
- pERK S/N ratio (pERK; CD34^+ (CD34^+/CD117^+ cells)): 11.9 ± 3.6
- pERK Percent (%) Responding Cells, Mean (pERK; CD117^+ (CD34^−/CD117^+ cells)): 37.1 ± 8.8%
- pERK S/N ratio (pERK; CD117^+ (CD34^−/CD117^+ cells)): 10.9 ± 2.9
- pERK Percent (%) Responding Cells, Mean (pERK; G1, immature myeloid cells): 3.3 ± 5.4%
- pERK S/N ratio (pERK; G1, immature myeloid cells): 2.9 ± 0.7
- pERK Percent (%) Responding Cells, Mean (pERK; G2, intermediate myeloid cells): 6.3 ± 11.2%
- pERK S/N ratio (pERK; G2, intermediate myeloid cells): 2.8 ± 0.6
- pERK Percent (%) Responding Cells, Mean (pERK; G3, mature myeloid cells): 9.1 ± 15.6%
- pERK S/N ratio (pERK; G3, mature myeloid cells): 3.6 ± 1.3
- pERK S/N ratio (pERK; Mono, monocytes): 12.8 and 12.8 ± 6.7
- pERK, Normal Sample (pERK; Table 7 comparison value, matches percent responding CD34^+ cells of Tables 1-5): 76.9
- pAKT Percent (%) Responding Cells, Mean (pAKT; CD34^+ (CD34^+/CD117^+ cells)): 34.3% and 34.3 ± 19.4%
- pAKT S/N ratio (pAKT; CD34^+ (CD34^+/CD117^+ cells)): 7.2 ± 4.9
- pAKT Percent (%) Responding Cells, Mean (pAKT; CD117^+ (CD34^−/CD117^+ cells)): 20.5 ± 28.3%
- pAKT S/N ratio (pAKT; CD117^+ (CD34^−/CD117^+ cells)): 2.8 ± 2.9
- pAKT Percent (%) Responding Cells, Mean (pAKT; G1, immature myeloid cells): 3.0 ± 4.3%
- pAKT S/N ratio (pAKT; G1, immature myeloid cells): 2.3 ± 1.1
- pAKT Percent (%) Responding Cells, Mean (pAKT; G2, intermediate myeloid cells): 3.6 ± 5.0%
- pAKT S/N ratio (pAKT; G2, intermediate myeloid cells): 2.4 ± 1.0
- pAKT Percent (%) Responding Cells, Mean (pAKT; G3, mature myeloid cells): 3.8 ± 2.5%
- pAKT S/N ratio (pAKT; G3, mature myeloid cells): 2.7 ± 1.3
- pAKT Percent (%) Responding Cells, Mean (pAKT; Mono, monocytes): 21.5% and 21.5 ± 23.8%
- pAKT S/N ratio (pAKT; Mono, monocytes): 4.2 ± 3.0
- pAKT, Normal Sample (pAKT; Table 7 comparison value): 76.9
